Data from ChEMBL document CHEMBL1140886, “Development of an optimized activatable MMP-14 targeted SPECT imaging probe” (Bioorg Med Chem, 2009).

Tested on: CC[C@H](C)[C@H](NC(=O)[C@H](CCCNC(=N)N)NC(=O)CNC(=O)[C@@H](N)CO)C(=O)NCC(=O)N[C@@H](Cc1ccccc1)C(=O)N[C@@H](CC(C)C)C(=O)N[C@@H](CCCNC(=N)N)C(=O)N[C@H](C(=O)N[C@@H](C)C(=O)O)[C@@H](C)O
Assay: Ratio of kcat/km for human recombinant MMP14 assessed as drug cleavage

Matrix metalloproteinase-14 (Homo sapiens) (from UniProt P50281)
kcat/Km: 777000 M⁻¹ s⁻¹
